For 8 molecules, Kd results are on record in patent publication US20180298101A1 (published 2018).

What all share (test): ITC
(In general: In ITC the heat of successive injections is recorded.)

For assay [1], the target named is T1, hCIS-SH2-BC complex (ternary complex of human GST-CIS-SH2 construct, residues 66-258 with PEST region 174-202 … (UniProt Q9NSE2 66-258; Q15370 1-118; P83940 17-112).
The target of assay [2] is T1, hCIS-SH2-BC complex (ternary complex of …). The source holds these as a separate data set.
For assay [3], the target named is human CIS lacking the PEST motif (ΔPEST) in trimeric complex with elongin B and elongin C (UniProt Q9NSE2 1-258; Q15370 1-118; Q15369 17-112).
The target of assay [4] is T2, human CIS lacking both the N-terminal region (residues 1-66) and the PEST motif (ΔNT/ΔPEST) in trimeric … (UniProt Q9NSE2 67-258; Q15370 1-118; Q15369 17-112).
Assay [5] concerns the target human full-length CIS in trimeric complex with elongin B and elongin C (UniProt Q9NSE2 1-258; Q15370 1-118; Q15369 17-112).
The target in assay [6] is T2, human CIS lacking both the N-terminal …. The source holds these as a separate data set.

Read-outs that look alike come from different tables or passages of the source. Non-standard residues stand in square brackets, D forms with d. No end group written: not given here. pY = N[C@@H](Cc1ccc(OP(=O)(O)O)cc1)C(=O)O

B1: IL-2Rβ cytoplasmic domain phosphopeptide (Tyr392 phosphorylated) (peptide)
peptide: DDA[pY]CTFPSRDD
A word on the Kd: it is the concentration at which binding is half-saturated. A lower Kd goes with a tighter complex. Regarding B1, the Kd in assay [1] and in assay [2] was 1800 nM throughout.

B2: JAK1 activation loop phosphopeptide (Tyr1034 phosphorylated) (peptide)
peptide: AIETDKE[pY]YTVKDDRD
As to B2, the Kd amounted to 2100 nM in assay [2]; 5300 nM in assay [3]; 2200 nM in assay [4]; 5300 nM in assay [5]; 2200 nM in assay [6].

B3: JAK1-Y1034 phosphopeptide with an alanine substitution at the +3 position (peptide)
peptide: AIETDKE[pY]YTAKDDRD
B3 had a dissociation constant (Kd) in assay [6] of 8300 nM.

B4: JAK3 activation loop phosphopeptide (Tyr980 phosphorylated) (peptide)
peptide: LLPLDKDYYVVREPGQ
modifications: not fully specified (residue 8)
The molecule B4 had a dissociation constant Kd in assay [2] of 800 nM.

B5: IL-2Rβ cytoplasmic domain phosphopeptide (Tyr355 phosphorylated) (peptide)
peptide: CQV[pY]FTYDPYSE
Consider B5, for which the equilibrium dissociation constant (Kd) in assay [1] and in assay [2] was 940 nM throughout.

B6: JAK1-Y1034 phosphopeptide with an alanine substitution at the +5 position (peptide)
peptide: AIETDKE[pY]YTVKADRD
B6 displayed a dissociation constant Kd in assay [6] of 6300 nM.

B7: JAK1-Y1034 phosphopeptide with an alanine substitution at the -3 position (peptide)
peptide: AIETAKE[pY]YTVKDDRD
In turn, B7 gave a Kd in assay [6] of 3500 nM.

B8: IL-2Rβ cytoplasmic domain phosphopeptide (Tyr361 phosphorylated) (peptide)
peptide: YDP[pY]SEEDPDEG
As to B8, the Kd in assay [1] and in assay [2] was 1500 nM throughout.
